Data published in US20240352110A1.

Legend:
[1] = molecular target: Rf IgM contained in native samples from patients with elevated Rf levels; test: Elecsys µ-capture (anti-IgM-Ru detection); native sample A5, Rf 466 IU/mL
[2] = molecular target: Rf IgM contained in native samples from patients with elevated Rf levels; test: Elecsys µ-capture (anti-IgM-Ru detection); native sample B6, Rf 386 IU/mL
[3] = molecular target: Rf IgM contained in native samples from patients with elevated Rf levels; test: Elecsys µ-capture (anti-IgM-Ru detection); native sample C9, Rf 640 IU/mL
[4] = molecular target: Rf IgM contained in native samples from patients with elevated Rf levels; test: Elecsys µ-capture (anti-IgM-Ru detection); native sample D4, Rf 566 IU/mL
[5] = molecular target: Rf IgM contained in native samples from patients with elevated Rf levels; test: Elecsys µ-capture (anti-IgM-Ru detection); native sample D8, Rf 572 IU/mL
[6] = molecular target: Rf IgM contained in native samples from patients with elevated Rf levels; test: Elecsys µ-capture (anti-IgM-Ru detection); native sample E2, Rf 423 IU/mL
[7] = molecular target: Rf IgM contained in native samples from patients with elevated Rf levels; test: Elecsys µ-capture (anti-IgM-Ru detection); native sample E8, Rf 339 IU/mL
[8] = molecular target: Rf IgM contained in native samples from patients with elevated Rf levels; test: Elecsys µ-capture (anti-IgM-Ru detection); native sample RF-3-2, Rf 401 IU/mL
[9] = molecular target: Rf IgM contained in native samples from patients with elevated Rf levels; test: Elecsys µ-capture (anti-IgM-Ru detection); native sample RF-3-4, Rf 321 IU/mL
[10] = molecular target: Rf IgM contained in native samples from patients with elevated Rf levels; test: Elecsys µ-capture (anti-IgM-Ru detection); native sample RF_3_1, Rf 430 IU/mL
[11] = molecular target: Rf IgM contained in native samples from patients with elevated Rf levels; test: Elecsys µ-capture (anti-IgM-Ru detection); native sample RF_3_3, Rf 394 IU/mL
[12] = molecular target: Rf IgM contained in native samples from patients with elevated Rf levels; test: Elecsys µ-capture (anti-IgM-Ru detection); native sample RF_3_5, Rf 402 IU/mL
[13] = molecular target: Rf IgM contained in native samples from patients with elevated Rf levels; test: Elecsys µ-capture (anti-IgM-Ru detection); native sample RF_3_6, Rf 371 IU/mL
[14] = molecular target: Rf IgM contained in native samples from patients with elevated Rf levels; test: Elecsys µ-capture (anti-IgM-Ru detection); native sample RF_3_7, Rf 318 IU/mL
[15] = molecular target: Rf IgM contained in native samples from patients with elevated Rf levels; test: Elecsys µ-capture (anti-IgM-Ru detection); native sample RF_3_8, Rf 402 IU/mL
[16] = molecular target: Rf IgM contained in native samples from patients with elevated Rf levels; test: Elecsys µ-capture (anti-IgM-Ru detection); native sample RF_3_9, Rf 439 IU/mL
[17] = molecular target: Rf IgM contained in native samples from patients with elevated Rf levels; test: Elecsys µ-capture (anti-IgM-Ru detection); native sample RF-3-11, Rf 383 IU/mL
[18] = molecular target: Rf IgM contained in native samples from patients with elevated Rf levels; test: Elecsys µ-capture (anti-IgM-Ru detection); native sample RF_2_31, Rf 457 IU/mL
[19] = molecular target: Rf IgM contained in native samples from patients with elevated Rf levels; test: Elecsys µ-capture (anti-IgM-Ru detection); native sample RF_2_32, Rf 655 IU/mL
[20] = molecular target: Rf IgM contained in native samples from patients with elevated Rf levels; test: Elecsys µ-capture (anti-IgM-Ru detection); native sample RF_2_33, Rf 377 IU/mL
[21] = molecular target: Rf IgM contained in native samples from patients with elevated Rf levels; test: Elecsys µ-capture (anti-IgM-Ru detection); native sample RF_3_10, Rf 322 IU/mL
[22] = molecular target: Rf IgM contained in native samples from patients with elevated Rf levels; test: Elecsys µ-capture (anti-IgM-Ru detection); native sample RF_3_12, Rf 457 IU/mL
[23] = molecular target: Rf IgM contained in native samples from patients with elevated Rf levels; test: Elecsys µ-capture (anti-IgM-Ru detection); native sample RF_3_13, Rf 1492 IU/mL

- Elecsys counts [1]: 11600 counts
- Elecsys counts [2]: 103000 counts
- Elecsys counts [3]: 8240 counts
- Elecsys counts [4]: 13300 counts
- Elecsys counts [5]: 242000 counts
- Elecsys counts [6]: 102000 counts
- Elecsys counts [7]: 118000 counts
- Elecsys counts [8]: 282000 counts
- Elecsys counts [9]: 99600 counts
- Elecsys counts [10]: 19700 counts
- Elecsys counts [11]: 5850 counts
- Elecsys counts [12]: 10400 counts
- Elecsys counts [13]: 24500 counts
- Elecsys counts [14]: 7580 counts
- Elecsys counts [15]: 6820 counts
- Elecsys counts [16]: 14500 counts
- Elecsys counts [17]: 69300 counts
- Elecsys counts [18]: 27300 counts
- Elecsys counts [19]: 4220 counts
- Elecsys counts [20]: 9430 counts
- Elecsys counts [21]: 8620 counts
- Elecsys counts [22]: 5670 counts
- Elecsys counts [23]: 4740 counts
B1: 21F12 F(ab′)2 fragment (protein)
VH: EVQLQQSGPELLKPGASVKISCKASGFTFTDYTMHWMKQSHGKSLEWIGGINPNSGGTIYNEKFKDKATLTVDKSSRTAYMELRSLTSEDSAVYFCTRGVYDGYFYWGQGTLVTVSA
VL: DVVMTQTPLSLPVSLGDQASISCRSSQSLVYSNGNTFLHWYLQKPGQSPKLLIYKVSTRFSGVPDRFSGSGSGSDFTLKISRVEAEDLGIYFCSQTTHAPFTFGSGTKLAIR
